This passage reports self-cleavage results from the RNAGym collection of RNA variant scans (doi:10.7554/elife.80360).

The chains are these.
B1: CPEB3 Ribozyme (parent)
chain: GGGGGCCACAGCAGAAGCGUUCACGUCGCGGCCCCUGUCAGAUUCUGGUGAAUCUGCGAAUUCUGCUGU

This series covers variants of B1. Put plainly: self-cleavage, relative activity (ratio to wild type); higher = more cleavage; co-transcriptional.
In the case of A13G G30C, the self-cleavage is 0.711. In the case of A13G G30A, the self-cleavage amounted to 0.856. In the case of A13U A23U it was 0.963. As to A13U A23G, the self-cleavage was determined as 0.618. Take A13C C24A: the self-cleavage was 0.402.

Take A13C C24U: the self-cleavage stood at 0.543. For A13C A52C the value was 0.77; for A13C A52U, 0.837.

Turning to A13U C54U, the self-cleavage amounted to 0.729. A13U C54A: the self-cleavage came to 0.29.

For A13G U55C, the self-cleavage is 0.621.

As to A13G U55G, the self-cleavage worked out at 0.51. On to A13G C29G, for which the self-cleavage stood at 0.126. For A13G C29A the value was 0.42; for A13C G17C, 0.122. In the case of A13C G17A it was 0.0886. In the case of A13G A23C it was 0.781; in that of A13C G56A, 0.625; in that of A13C G56C, 0.367. For the variant A13C G56U, the self-cleavage is 0.51.

For A13G A40G, the self-cleavage was determined as 0.831. Take A13G A40U: the self-cleavage was found to be 0.455. For C12U U43C, the self-cleavage is 0.928. For C12U U43G the value was 0.706; for A13G U62G, 0.445; for A13G U62C, 0.449. On to A13G U62A, for which the self-cleavage came out at 0.622. For A13C C22U the value was 0.209. In the case of A13U C34G it was 0.309; in that of A13U C34A, 0.704; in that of C12U U69C, 1.07. On to A13G C22G, for which the self-cleavage was found to be 0.199. As to A13G A42U, the self-cleavage was 0.74.

With A13U C45G, the self-cleavage was 0.814.

Consider A13U C45A, for which the self-cleavage worked out at 0.764. For A13C G50C the value was 0.787; for A13C G50U, 0.909. In the case of A13C C63G, the self-cleavage was 0.366. Take A13C C63A: the self-cleavage amounted to 0.467.

For A13C C63U, the self-cleavage turned out to be 0.732. In the case of A13C C32A it was 0.55; in that of A13G C57U, 0.358. In the case of A13G C57G it was 0.36; in that of A13C A42U, 0.561; in that of A13C A42G, 0.506. Turning to C12U U36A, the self-cleavage amounted to 0.231. In the case of C12U U36G, the self-cleavage worked out at 0.193. With A13C C54A, the self-cleavage amounted to 0.414. On to A13C C54G, for which the self-cleavage came to 0.45. In the case of A13C C54U it was 0.773; in that of A13G G37C, 0.109; in that of A13G G37A, 0.172. In the case of A13G G37U it was 0.184; in that of A13U G28A, 0.134; in that of A13U G28C, 0.125. As to A13C U44C, the self-cleavage worked out at 0.51. A13C U44A: the self-cleavage came out at 0.7. As for A13C U44G, the self-cleavage came to 0.802. As for C12U U20C, the self-cleavage came out at 0.165. For C12U U20A the value was 0.146; for A13G U49A, 0.95. A13C C39U: the self-cleavage was 0.555. A13G U64G: the self-cleavage came out at 0.745. Take A13G U64C: the self-cleavage came to 1. For A13G U64A, the self-cleavage is 0.843. For A13C G68C the value was 0.917.

For the variant A13C G68A, the self-cleavage was determined as 0.921. In the case of A13C A51G it was 0.903; in that of A13G G17U, 0.214. For A13G G17A the value was 0.0885; for A13G C54A, 0.642; for A13G C54G, 0.772. In the case of A13G C27U it was 0.168; in that of A13C G65A, 0.431. In the case of A13C G65C, the self-cleavage was determined as 0.278. Regarding A13C U62G, the self-cleavage amounted to 0.355. For the variant A13C C27U, the self-cleavage stood at 0.15. In the case of A13C C27A it was 0.145; in that of A13C C66G, 0.862. In the case of A13C C66A it was 0.48; in that of A13C C66U, 0.465; in that of A13G U26C, 0.78. Take A13G U26G: the self-cleavage was found to be 0.935. For A13G G68A the value was 1.01; for A13U A59G, 0.784; for A13U A59C, 0.33. For A13C U67G the value was 0.824; for A13U G48U, 0.916.

On to A13U G48C, for which the self-cleavage stood at 0.872. In the case of A13U C32A it was 0.542; in that of A13U C32G, 0.229. For A13G A60C the value was 0.268; for A13G A60U, 0.282; for A13G A60G, 0.66. For A13G U44G the value was 0.826; for A13U C39A, 0.394; for A13U C39G, 0.508. In the case of A13U A15G, the self-cleavage turned out to be 0.79. For A13U A15U the value was 0.56; for A13U A15C, 0.354. For A13G U46G the value was 0.979; for A13G U46A, 1.02. Turning to A13C U55C, the self-cleavage worked out at 0.439.

Consider A13C C33A, for which the self-cleavage came to 0.593.

Turning to A13C U61C, the self-cleavage was found to be 0.281. Consider A13G U38A, for which the self-cleavage was 0.898. For A13G U38C the value was 0.938.

A13G U38G: the self-cleavage was 0.149. In the case of A13G C45U it was 0.917; in that of A13G C45A, 0.889; in that of A13U C18G, 0.119. Consider A13U C18U, for which the self-cleavage was 0.19. A13G C18A: the self-cleavage turned out to be 0.0625. Regarding A13G C18G, the self-cleavage stood at 0.169. C12U U49G: the self-cleavage came to 1. In the case of C12U U49C, the self-cleavage was determined as 0.971. Consider A13U G17A, for which the self-cleavage was 0.102.

On to A13U G17U, for which the self-cleavage stood at 0.163.

Consider C12U U44C, for which the self-cleavage stood at 0.906. For A13G A59U, the self-cleavage was found to be 0.57. Regarding A13G A59G, the self-cleavage came to 0.946. In the case of A13G A59C it was 0.522; in that of C12U G58A, 1.01. For the variant C12U G58U, the self-cleavage came to 0.991. Take A13C U26A: the self-cleavage amounted to 0.615. For the variant A13C U26C, the self-cleavage was 0.692. In the case of A13C U26G, the self-cleavage was 0.113.

With A13C G19U, the self-cleavage was 0.138.

With A13G U69C, the self-cleavage is 1.04. With A13G U69G, the self-cleavage came out at 1.01. With A13U C57U, the self-cleavage is 0.308. For A13U C57G the value was 0.226; for A13G A51C, 0.874; for A13G G58A, 0.902. In the case of A13G G58C it was 0.878; in that of A13G G58U, 1.01. C12U U21G: the self-cleavage stood at 0.537.

Turning to C12U U21A, the self-cleavage turned out to be 0.947. In the case of A13U G25A it was 0.168; in that of A13U A52G, 0.902; in that of A13U A52C, 0.8. Turning to A13U A52U, the self-cleavage stood at 0.776.

As to A13G U67C, the self-cleavage came to 0.94. In the case of A13G U67A, the self-cleavage is 0.889.

On to C12U U67A, for which the self-cleavage came out at 0.948. Turning to C12U U67G, the self-cleavage was 0.938.

Regarding C12U U55G, the self-cleavage was found to be 0.616.

As to C12U U55C, the self-cleavage came out at 0.83. For A13C A16C the value was 0.102; for A13C A16U, 0.185. In the case of A13C A16G it was 0.682; in that of A13G G31A, 0.775; in that of A13G G31U, 0.555.

On to A13C U43G, for which the self-cleavage came out at 0.32. As to A13C U43A, the self-cleavage is 0.514.

Consider A13U A51U, for which the self-cleavage stood at 0.858. As to A13U A51C, the self-cleavage was determined as 0.828.

A13U A51G: the self-cleavage stood at 0.837. A13C U46C: the self-cleavage was determined as 0.761. In the case of A13G U20G it was 0.0546; in that of A13G G65U, 0.561; in that of A13C G14C, 0.228. In the case of A13C G14A it was 0.251; in that of A13C G14U, 0.22; in that of C12U G47C, 1.03. In the case of C12U G47U it was 0.998; in that of C12U G47A, 1.03.
